# Legend:
# Experiment in all cases: cell-based or functional assay
# JAK2(h) (human) = JAK2(h) (human) (UniProt O60674)
# JAK3(h) (human) = JAK3(h) (human) (UniProt P52333)
# GSK3β(h) (human) = GSK3β(h) (human) (UniProt P49841)
# ALK(h) (human) = ALK(h) (human) (UniProt Q9UM73)
# MINK(h) (human) = MINK(h) (human) (UniProt Q8N4C8)
# Met(Y1248H)(h) (human) = Met(Y1248H)(h) (human) (UniProt P08581)
# Ab1(Y253F)(h) (human) = Ab1(Y253F)(h) (human) (UniProt P00519)
# MAPK2(h) (human) = MAPK2(h) (human) (UniProt P28482)
# CHK2(R145W)(h) (human) = CHK2(R145W)(h) (human) (UniProt O96017)
# SAPK2a(T106M)(h) (human) = SAPK2a(T106M)(h) (human) (UniProt Q16539)
# Src(T341M)(h) (human) = Src(T341M)(h) (human) (UniProt P12931)
# STK33(h) (human) = STK33(h) (human) (UniProt Q9BYT3)
# DAPK1(h) (human) = DAPK1(h) (human) (UniProt P53355)
# Rsk1(h) (human) = Rsk1(h) (human) (UniProt Q15418)
# TSSK1(h) (human) = TSSK1(h) (human) (UniProt Q9BXA7)
# DMPK(h) (human) = DMPK(h) (human) (UniProt Q09013)
# IRR(h) (human) = IRR(h) (human) (UniProt P14616)
# MEK1(h) (human) = MEK1(h) (human) (UniProt Q02750)
# GSK3α(h) (human) = GSK3α(h) (human) (UniProt P49840)
# Fer(h) (human) = Fer(h) (human) (UniProt P16591)
# Pim-2(h) (human) = Pim-2(h) (human) (UniProt Q9P1W9)
# p70S6K(h) (human) = p70S6K(h) (human) (UniProt P23443)
# Flt3(h) (human) = Flt3(h) (human) (UniProt P36888)
# Aurora-B(h) (human) = Aurora-B(h) (human) (UniProt Q96GD4)
# SAPK2a(h) (human) = SAPK2a(h) (human) (UniProt Q16539)
# TSSK2(h) (human) = TSSK2(h) (human) (UniProt Q96PF2)
# PKCµ(h) (human) = PKCµ(h) (human) (UniProt Q15139)
# PTK5(h) (human) = PTK5(h) (human) (UniProt P42685)
# Met(D1246H)(h) (human) = Met(D1246H)(h) (human) (UniProt P08581)
# DYRK2(h) (human) = DYRK2(h) (human) (UniProt Q92630)
# PrKX(h) (human) = PrKX(h) (human) (UniProt P51817)
# PKBγ(h) (human) = PKBγ(h) (human) (UniProt Q9Y243)
# PKCβII(h) (human) = PKCβII(h) (human) (UniProt P05771)
# LIMK1(h) (human) = LIMK1(h) (human) (UniProt P53667)
# Lck(h) activated (human) = Lck(h) activated (human) (UniProt P06239)
# CSK(h) (human) = CSK(h) (human) (UniProt P41240)
# cKit(V560G)(h) (human) = cKit(V560G)(h) (human) (UniProt P10721)
# EphA5(h) (human) = EphA5(h) (human) (UniProt P54756)
# Src(1-530)(h) (human) = Src(1-530)(h) (human) (UniProt P12931)
# MSK1(h) (human) = MSK1(h) (human) (UniProt O75582)
# NLK(h) (human) = NLK(h) (human) (UniProt Q9UBE8)
# ASK1(h) (human) = ASK1(h) (human) (UniProt Q99683)
# MAPKAP-K3(h) (human) = MAPKAP-K3(h) (human) (UniProt Q16644)
# Flt1(h) (human) = Flt1(h) (human) (UniProt P17948)
# TrkB(h) (human) = TrkB(h) (human) (UniProt Q16620)
# Ret(h) (human) = Ret(h) (human) (UniProt P07949)
# EGFR(h) (human) = EGFR(h) (human) (UniProt P00533)
# PAK4(h) (human) = PAK4(h) (human) (UniProt O96013)
# PDGFRβ(h) (human) = PDGFRβ(h) (human) (UniProt P09619)
# Mnk2(h) (human) = Mnk2(h) (human) (UniProt Q9HBH9)
# mTOR(h) (human) = mTOR(h) (human) (UniProt P42345)
# Plk3(h) (human) = Plk3(h) (human) (UniProt Q9H4B4)
# Rse(h) (human) = Rse(h) (human) (UniProt Q06418)
# PKCα(h) (human) = PKCα(h) (human) (UniProt P17252)
# PRAK(h) (human) = PRAK(h) (human) (UniProt Q8IW41)
# Rsk2(h) (human) = Rsk2(h) (human) (UniProt P51812)
# Rsk2(h) (human), sequence (P51812 whole entry): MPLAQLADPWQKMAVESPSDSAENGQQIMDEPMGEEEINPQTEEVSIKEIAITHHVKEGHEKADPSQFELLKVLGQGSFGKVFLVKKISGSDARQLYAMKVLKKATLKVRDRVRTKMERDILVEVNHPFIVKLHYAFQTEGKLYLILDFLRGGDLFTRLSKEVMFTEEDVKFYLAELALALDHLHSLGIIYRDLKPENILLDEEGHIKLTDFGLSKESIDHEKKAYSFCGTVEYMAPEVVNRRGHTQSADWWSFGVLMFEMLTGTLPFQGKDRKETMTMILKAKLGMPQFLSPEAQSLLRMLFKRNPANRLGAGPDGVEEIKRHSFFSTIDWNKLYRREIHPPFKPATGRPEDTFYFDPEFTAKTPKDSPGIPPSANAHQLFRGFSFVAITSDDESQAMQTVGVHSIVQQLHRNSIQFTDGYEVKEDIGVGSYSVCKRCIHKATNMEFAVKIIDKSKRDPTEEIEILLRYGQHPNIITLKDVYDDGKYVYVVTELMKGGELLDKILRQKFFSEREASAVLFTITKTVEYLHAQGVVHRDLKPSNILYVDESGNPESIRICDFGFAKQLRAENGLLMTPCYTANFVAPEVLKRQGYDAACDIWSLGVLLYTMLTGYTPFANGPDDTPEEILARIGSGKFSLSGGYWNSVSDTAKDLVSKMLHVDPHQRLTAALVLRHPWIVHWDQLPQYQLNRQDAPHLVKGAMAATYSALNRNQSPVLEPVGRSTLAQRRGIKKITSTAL
# SAPK2a(h) (human), sequence (Q16539 whole entry): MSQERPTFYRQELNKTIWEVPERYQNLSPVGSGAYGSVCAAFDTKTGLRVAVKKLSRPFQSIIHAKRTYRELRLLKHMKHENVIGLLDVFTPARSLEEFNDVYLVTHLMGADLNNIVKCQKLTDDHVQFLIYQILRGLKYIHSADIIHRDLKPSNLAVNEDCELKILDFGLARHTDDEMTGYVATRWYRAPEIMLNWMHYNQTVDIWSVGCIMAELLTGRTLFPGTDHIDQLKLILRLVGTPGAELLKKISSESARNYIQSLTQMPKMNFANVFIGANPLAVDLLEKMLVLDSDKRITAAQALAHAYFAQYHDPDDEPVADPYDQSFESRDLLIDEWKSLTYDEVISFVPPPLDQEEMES
# JAK3(h) (human), sequence (P52333 781-1124 limits assumed): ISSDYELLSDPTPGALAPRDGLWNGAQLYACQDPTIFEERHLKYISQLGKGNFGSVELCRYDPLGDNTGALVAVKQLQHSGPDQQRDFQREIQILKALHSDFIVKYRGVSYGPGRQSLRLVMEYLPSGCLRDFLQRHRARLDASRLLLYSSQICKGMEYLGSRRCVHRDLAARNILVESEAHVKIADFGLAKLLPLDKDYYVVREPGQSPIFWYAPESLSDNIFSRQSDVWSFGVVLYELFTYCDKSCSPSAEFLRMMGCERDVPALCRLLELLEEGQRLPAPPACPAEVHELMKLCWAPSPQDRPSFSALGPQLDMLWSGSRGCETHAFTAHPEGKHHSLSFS
# PDGFRβ(h) (human), sequence (P09619 557-1106 limits assumed): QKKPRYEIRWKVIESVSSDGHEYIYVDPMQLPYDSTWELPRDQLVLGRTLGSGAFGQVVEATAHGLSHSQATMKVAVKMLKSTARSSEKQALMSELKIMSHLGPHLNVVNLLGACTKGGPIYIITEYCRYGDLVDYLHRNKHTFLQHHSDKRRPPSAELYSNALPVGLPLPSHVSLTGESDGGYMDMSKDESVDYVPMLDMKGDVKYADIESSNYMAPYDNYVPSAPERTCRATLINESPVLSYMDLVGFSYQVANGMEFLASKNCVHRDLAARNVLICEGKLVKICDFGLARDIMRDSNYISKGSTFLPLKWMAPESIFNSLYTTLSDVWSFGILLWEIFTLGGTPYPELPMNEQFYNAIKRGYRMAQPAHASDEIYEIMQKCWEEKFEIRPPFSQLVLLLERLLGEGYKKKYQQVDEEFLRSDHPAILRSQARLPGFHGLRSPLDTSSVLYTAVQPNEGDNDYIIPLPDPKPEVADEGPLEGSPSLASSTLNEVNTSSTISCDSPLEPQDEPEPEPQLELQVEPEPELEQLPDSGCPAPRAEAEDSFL
# MAPK2(h) (human), sequence (P28482 whole entry): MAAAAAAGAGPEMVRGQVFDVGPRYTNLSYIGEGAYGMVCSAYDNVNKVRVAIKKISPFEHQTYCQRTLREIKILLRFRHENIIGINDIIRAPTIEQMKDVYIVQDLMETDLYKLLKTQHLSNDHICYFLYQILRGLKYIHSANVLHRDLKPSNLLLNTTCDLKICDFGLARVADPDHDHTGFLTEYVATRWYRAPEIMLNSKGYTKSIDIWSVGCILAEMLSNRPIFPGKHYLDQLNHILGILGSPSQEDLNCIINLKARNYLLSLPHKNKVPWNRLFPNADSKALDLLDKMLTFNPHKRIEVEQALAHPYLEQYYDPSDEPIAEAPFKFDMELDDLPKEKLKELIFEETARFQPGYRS
# cKit(V560G)(h) (human), sequence (P10721 544-976 V560G limits assumed): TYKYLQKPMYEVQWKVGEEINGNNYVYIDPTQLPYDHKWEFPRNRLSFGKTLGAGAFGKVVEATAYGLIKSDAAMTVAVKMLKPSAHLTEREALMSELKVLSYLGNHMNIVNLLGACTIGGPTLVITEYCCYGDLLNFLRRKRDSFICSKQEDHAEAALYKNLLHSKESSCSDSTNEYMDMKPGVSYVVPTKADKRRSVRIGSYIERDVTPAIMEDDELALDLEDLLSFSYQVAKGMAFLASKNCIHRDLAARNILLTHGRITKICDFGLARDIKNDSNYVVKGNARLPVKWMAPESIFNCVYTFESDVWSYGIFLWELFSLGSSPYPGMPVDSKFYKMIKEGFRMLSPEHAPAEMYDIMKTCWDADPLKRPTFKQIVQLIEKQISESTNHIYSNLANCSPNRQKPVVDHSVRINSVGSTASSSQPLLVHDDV
# SAPK2a(T106M)(h) (human), sequence (Q16539 whole entry T106M): as the sequence (Q16539 whole entry) above, with T106M counted along it
# mTOR(h) (human), sequence (P42345 1362-2549 limits assumed): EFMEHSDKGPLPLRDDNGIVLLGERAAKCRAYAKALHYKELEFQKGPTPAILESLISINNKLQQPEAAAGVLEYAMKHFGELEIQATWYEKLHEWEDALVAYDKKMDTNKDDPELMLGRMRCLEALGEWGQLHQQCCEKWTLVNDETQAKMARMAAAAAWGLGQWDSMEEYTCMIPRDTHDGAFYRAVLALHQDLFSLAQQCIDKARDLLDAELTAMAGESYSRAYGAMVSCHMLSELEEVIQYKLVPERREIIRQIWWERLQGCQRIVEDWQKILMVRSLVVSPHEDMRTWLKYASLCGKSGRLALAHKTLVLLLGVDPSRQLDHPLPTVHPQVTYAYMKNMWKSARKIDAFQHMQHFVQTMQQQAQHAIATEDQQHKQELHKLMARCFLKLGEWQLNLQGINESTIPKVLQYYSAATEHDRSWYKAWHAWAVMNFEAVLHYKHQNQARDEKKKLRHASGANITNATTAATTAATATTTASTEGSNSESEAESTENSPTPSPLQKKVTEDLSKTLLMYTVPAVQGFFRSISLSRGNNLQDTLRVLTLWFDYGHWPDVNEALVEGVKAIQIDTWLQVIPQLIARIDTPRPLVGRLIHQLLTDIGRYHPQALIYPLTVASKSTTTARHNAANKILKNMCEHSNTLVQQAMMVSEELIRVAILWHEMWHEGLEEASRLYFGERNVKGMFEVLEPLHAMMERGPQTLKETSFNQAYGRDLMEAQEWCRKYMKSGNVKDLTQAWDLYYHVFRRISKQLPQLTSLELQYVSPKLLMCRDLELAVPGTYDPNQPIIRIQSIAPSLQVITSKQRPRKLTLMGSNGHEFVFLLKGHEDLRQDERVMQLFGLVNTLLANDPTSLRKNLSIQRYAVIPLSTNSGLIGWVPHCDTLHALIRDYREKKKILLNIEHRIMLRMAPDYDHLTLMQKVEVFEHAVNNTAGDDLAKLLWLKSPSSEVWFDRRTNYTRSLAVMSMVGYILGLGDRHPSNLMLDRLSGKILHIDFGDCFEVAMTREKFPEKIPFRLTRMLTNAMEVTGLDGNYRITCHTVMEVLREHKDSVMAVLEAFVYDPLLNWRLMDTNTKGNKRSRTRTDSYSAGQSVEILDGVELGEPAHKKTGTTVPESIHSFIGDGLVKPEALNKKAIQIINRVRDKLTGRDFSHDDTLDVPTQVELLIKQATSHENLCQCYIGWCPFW
# PrKX(h) (human), sequence (P51817 whole entry): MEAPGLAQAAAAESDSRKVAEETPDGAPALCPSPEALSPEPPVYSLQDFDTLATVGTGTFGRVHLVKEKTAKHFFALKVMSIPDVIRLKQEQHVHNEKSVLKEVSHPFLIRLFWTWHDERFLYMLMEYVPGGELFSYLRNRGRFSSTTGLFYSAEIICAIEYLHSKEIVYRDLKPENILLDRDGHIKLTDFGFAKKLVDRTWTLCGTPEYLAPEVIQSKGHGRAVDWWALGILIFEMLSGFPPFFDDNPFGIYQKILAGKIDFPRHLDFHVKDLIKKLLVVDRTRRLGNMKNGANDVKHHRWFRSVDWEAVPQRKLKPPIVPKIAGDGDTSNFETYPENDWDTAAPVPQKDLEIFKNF
# PAK4(h) (human), sequence (O96013 whole entry): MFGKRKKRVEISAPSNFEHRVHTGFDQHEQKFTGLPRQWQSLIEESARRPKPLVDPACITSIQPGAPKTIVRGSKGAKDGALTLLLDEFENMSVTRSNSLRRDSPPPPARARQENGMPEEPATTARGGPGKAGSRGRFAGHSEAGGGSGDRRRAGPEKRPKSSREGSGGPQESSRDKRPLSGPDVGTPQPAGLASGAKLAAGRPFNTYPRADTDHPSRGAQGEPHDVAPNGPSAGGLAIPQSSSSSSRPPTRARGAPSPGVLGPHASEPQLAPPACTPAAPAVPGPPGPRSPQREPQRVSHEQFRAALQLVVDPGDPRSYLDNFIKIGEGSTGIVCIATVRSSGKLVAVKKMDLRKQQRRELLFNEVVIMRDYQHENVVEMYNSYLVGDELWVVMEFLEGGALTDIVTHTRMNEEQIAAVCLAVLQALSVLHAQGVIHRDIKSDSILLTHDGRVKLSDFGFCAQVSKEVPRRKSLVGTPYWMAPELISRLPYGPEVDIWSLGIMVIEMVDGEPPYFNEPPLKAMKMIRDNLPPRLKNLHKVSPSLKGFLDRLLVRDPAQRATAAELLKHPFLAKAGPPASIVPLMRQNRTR
substance,measurement,setting,value
MMI-0500 (peptide),% activity,JAK2(h) (human),49%
same,% activity,JAK3(h) (human),95%
same,% activity,GSK3β(h) (human),238%
same,% activity,ALK(h) (human),12%
same,% activity,MINK(h) (human),5%
same,% activity,Met(Y1248H)(h) (human),126%
same,% activity,Ab1(Y253F)(h) (human),29%
same,% activity,MAPK2(h) (human),60%
same,% activity,CHK2(R145W)(h) (human),3%
same,% activity,SAPK2a(T106M)(h) (human),32%
same,% activity,Src(T341M)(h) (human),59%
same,% activity,STK33(h) (human),16%
same,% activity,DAPK1(h) (human),0%
same,% activity,Rsk1(h) (human),34%
same,% activity,TSSK1(h) (human),46%
same,% activity,DMPK(h) (human),12%
same,% activity,IRR(h) (human),10%
same,% activity,MEK1(h) (human),21%
same,% activity,GSK3α(h) (human),175%
same,% activity,Fer(h) (human),196%
same,% activity,Pim-2(h) (human),46%
same,% activity,p70S6K(h) (human),3%
same,% activity,Flt3(h) (human),17%
same,% activity,Aurora-B(h) (human),5%
same,% activity,SAPK2a(h) (human),52%
same,% activity,TSSK2(h) (human),92%
same,% activity,PKCµ(h) (human),10%
same,% activity,PTK5(h) (human),96%
same,% activity,Met(D1246H)(h) (human),150%
same,% activity,DYRK2(h) (human),127%
same,% activity,PrKX(h) (human),57%
same,% activity,PKBγ(h) (human),20%
same,% activity,PKCβII(h) (human),3%
same,% activity,LIMK1(h) (human),87%
same,% activity,Lck(h) activated (human),76%
same,% activity,CSK(h) (human),2%
same,% activity,cKit(V560G)(h) (human),198%
same,% activity,EphA5(h) (human),42%
same,% activity,Src(1-530)(h) (human),21%
same,% activity,MSK1(h) (human),8%
same,% activity,NLK(h) (human),19%
same,% activity,ASK1(h) (human),-4%
same,% activity,MAPKAP-K3(h) (human),9%
same,% activity,Flt1(h) (human),27%
same,% activity,TrkB(h) (human),12%
same,% activity,Ret(h) (human),174%
same,% activity,EGFR(h) (human),-1%
same,% activity,PAK4(h) (human),86%
same,% activity,PDGFRβ(h) (human),40%
same,% activity,Mnk2(h) (human),6%
same,% activity,mTOR(h) (human),135%
same,% activity,Plk3(h) (human),122%
same,% activity,Rse(h) (human),63%
same,% activity,PKCα(h) (human),3%
same,% activity,PRAK(h) (human),95%
same,% activity,Rsk2(h) (human),14%

# — patent US20160200782A1
